Laboratory results from article PMC6141617 (Nature Communications, 2018).

T1: 14-3-3β (purified alone) (human, UniProt P31946 1-239)
T1 construct: also called YWHAB (pTvHR21-SGC)
T1 sequence: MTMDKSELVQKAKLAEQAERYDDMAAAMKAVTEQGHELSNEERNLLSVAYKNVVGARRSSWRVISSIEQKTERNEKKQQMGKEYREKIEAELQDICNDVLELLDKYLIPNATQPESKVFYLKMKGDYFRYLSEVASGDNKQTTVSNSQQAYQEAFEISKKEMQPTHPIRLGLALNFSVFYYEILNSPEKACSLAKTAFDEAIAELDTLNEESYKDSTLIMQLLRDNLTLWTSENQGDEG

B1: 14-3-3β^1–239 (untagged, first co-expression construct) (natural protein)
chain: T1 sequence
B2: 14-3-3β truncated after N234 (untagged, re-designed co-expression construct) (domain or fragment, human, UniProt P31946 1-234, looked up)
chain: MTMDKSELVQKAKLAEQAERYDDMAAAMKAVTEQGHELSNEERNLLSVAYKNVVGARRSSWRVISSIEQKTERNEKKQQMGKEYREKIEAELQDICNDVLELLDKYLIPNATQPESKVFYLKMKGDYFRYLSEVASGDNKQTTVSNSQQAYQEAFEISKKEMQPTHPIRLGLALNFSVFYYEILNSPEKACSLAKTAFDEAIAELDTLNEESYKDSTLIMQLLRDNLTLWTSEN
B3: GFP-ExoS^233-435 (domain or fragment)
chain: ADKALADGLVKRFGADAEKYLGRQPGGIHSDAEVMALGLYTGIHYADLNRALRQGQELDAGQKLIDQGMSAAFEKSGQAEQVVKTFRGTRGGDAFNAVEEGKVGHDDGYLSTSLNPGVARSFGQGTISTVFGRSGIDVSGISNYKNEKEILYNKETDMRVLLSASDEQGVTRRVLEEAALGEQSGHSQGLLDALDLASKPERS
B4: GFP-ExoS^233-453 (domain or fragment)
chain: ADKALADGLVKRFGADAEKYLGRQPGGIHSDAEVMALGLYTGIHYADLNRALRQGQELDAGQKLIDQGMSAAFEKSGQAEQVVKTFRGTRGGDAFNAVEEGKVGHDDGYLSTSLNPGVARSFGQGTISTVFGRSGIDVSGISNYKNEKEILYNKETDMRVLLSASDEQGVTRRVLEEAALGEQSGHSQGLLDALDLASKPERSGEVQEQDVRLRMRGLDLA

Legend:
crystal structure = target: the molecule itself; assay: crystal structure
14-3-3β (purified alone) = target: T1, 14-3-3β (purified alone); assay: fluorescence polarisation; conditions: both partners purified

| Binder | stoichiometry N (crystal structure) | Kd (14-3-3β (purified alone)) [nM] |
| --- | --- | --- |
| B1 | 2 |  |
| B2 | 2 |  |
| B3 |  | ~70 |
| B4 |  | ~40 |
